Test results from patent US20100041612A1 (published 2010).
Ends that are not written are not given here.

Experiments:
[1] = target: wild-type human GLP-1 receptor (human, UniProt P43220 24-463); assay: cell-based or functional assay
[2] = target: hyperactive human GLP-1 receptor variant (human); assay: cell-based or functional assay

B1: GLP-1 (7-20) amide (peptide)
peptide: HAEGTFTSDVSSYL-NH2
- cAMP production (radioimmunoassay), half maximal excitatory concentration (EC50) [1]: 240 µM
- cAMP production (radioimmunoassay), EC50 [2]: 24 µM
- cAMP production, fold potency increase against the same peptide at the wild type receptor [2]: 10 fold

B2: GLP-1 (7-20) carboxy-terminal tethered with biphenylalanine (peptide)
peptide: HAEGTFTSDVSSYL-biphenylalanine
modifications: not fully specified
- cAMP production (radioimmunoassay), EC50 [1]: 11 µM
- cAMP production, fold potency increase against GLP-1 (7-20) amide without biphenylalanine [1]: 22 fold
- cAMP production (radioimmunoassay), EC50 [2]: 2 µM
- cAMP production, fold higher potency against GLP-1 (7-20) amide -bpa at the hyperactive receptor [2]: 10 fold
